Consider one substance from article PMC4764565.

The experiment has as its target EphB2-KD-GFP (UniProt P54763). The experiment is described as follows: co-IP; anti-GFP antibody on ProteinA/G agarose, overnight, pre-cleared lysates of co-transfected HEK293 cells (10mM Tris-Cl pH 8, 137 mM NaCl, 2mM EDTA, 1% NP40); blot for Myc; in the ligand experiments cells were starved 2 hr in OPTIMEM and incubated 15 min at 37°C with pre-clustered Fc, eB2-Fc or eA3-Fc (1.5 μg/ml), Netrin-1 (250 ng/ml) or eB2-Fc+Netrin-1 before lysis.

Chain of Unc5c-Myc (O08747 41-931): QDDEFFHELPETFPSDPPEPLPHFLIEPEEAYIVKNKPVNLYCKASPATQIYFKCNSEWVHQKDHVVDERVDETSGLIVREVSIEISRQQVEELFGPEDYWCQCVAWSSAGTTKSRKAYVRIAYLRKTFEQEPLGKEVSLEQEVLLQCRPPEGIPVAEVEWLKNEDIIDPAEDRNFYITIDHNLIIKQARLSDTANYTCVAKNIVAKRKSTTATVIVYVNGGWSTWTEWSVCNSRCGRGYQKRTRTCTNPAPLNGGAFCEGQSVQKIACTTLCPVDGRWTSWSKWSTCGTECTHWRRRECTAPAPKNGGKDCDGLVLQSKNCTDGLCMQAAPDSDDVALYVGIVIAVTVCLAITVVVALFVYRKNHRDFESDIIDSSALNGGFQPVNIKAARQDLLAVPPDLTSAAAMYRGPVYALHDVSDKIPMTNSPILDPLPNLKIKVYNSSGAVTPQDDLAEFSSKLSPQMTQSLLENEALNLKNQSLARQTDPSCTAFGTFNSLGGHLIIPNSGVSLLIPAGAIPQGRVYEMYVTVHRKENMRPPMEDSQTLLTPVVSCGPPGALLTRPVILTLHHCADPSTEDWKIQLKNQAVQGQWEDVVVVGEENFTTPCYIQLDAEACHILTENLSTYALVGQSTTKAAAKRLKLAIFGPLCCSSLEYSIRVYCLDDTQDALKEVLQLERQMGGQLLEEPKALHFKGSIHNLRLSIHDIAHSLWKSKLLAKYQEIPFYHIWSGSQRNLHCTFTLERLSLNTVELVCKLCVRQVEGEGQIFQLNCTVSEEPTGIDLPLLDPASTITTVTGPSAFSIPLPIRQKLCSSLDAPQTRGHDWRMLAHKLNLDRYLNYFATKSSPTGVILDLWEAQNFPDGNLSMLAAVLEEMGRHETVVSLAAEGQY
Chain of EphB2-KD-GFP (P54763 19-986): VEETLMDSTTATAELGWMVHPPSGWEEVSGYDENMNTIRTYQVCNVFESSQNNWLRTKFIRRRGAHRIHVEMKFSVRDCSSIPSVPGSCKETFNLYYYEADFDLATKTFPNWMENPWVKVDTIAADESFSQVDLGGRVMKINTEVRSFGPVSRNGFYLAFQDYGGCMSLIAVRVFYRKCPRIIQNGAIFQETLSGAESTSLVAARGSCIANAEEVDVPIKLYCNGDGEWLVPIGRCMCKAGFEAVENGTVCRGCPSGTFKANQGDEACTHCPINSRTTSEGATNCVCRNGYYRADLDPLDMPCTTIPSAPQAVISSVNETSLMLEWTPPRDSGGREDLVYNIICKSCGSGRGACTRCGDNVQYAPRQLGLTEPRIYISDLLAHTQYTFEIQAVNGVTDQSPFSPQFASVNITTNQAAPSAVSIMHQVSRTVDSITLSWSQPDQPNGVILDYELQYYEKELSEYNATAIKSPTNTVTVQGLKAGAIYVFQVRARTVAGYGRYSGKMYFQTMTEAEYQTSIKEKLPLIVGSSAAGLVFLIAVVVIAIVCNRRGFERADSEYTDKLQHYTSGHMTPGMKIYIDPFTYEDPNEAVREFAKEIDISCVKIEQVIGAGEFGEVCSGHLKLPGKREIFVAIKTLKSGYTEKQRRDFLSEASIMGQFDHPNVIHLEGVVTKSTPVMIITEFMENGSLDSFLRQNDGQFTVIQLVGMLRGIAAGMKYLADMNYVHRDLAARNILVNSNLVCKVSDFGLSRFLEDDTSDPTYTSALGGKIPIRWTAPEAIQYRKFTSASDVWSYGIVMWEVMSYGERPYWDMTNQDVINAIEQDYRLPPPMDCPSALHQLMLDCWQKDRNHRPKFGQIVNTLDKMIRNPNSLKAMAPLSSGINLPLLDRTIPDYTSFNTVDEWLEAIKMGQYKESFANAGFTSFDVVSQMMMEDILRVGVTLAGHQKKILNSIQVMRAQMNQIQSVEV

Take “Unc5c-Myc (from UniProt O08747 41-931) (receptor)”: the percent reduction of the interaction against wild-type EphB2-GFP came to 67%.
